Laboratory results published in the RNAGym collection of RNA variant scans (doi:10.7554/elife.80360).

B1: HDV Ribozyme (parent)
chain: GGCCGGCAUGGUCCCAGCCUCCUCGCUGGCGCCGGCUGGGCAACAUUCCGAGGGGACCGUCCCCUCGGUAAUGGCGAAUGGGACCCA

Variants of: B1
Assay: self-cleavage, relative activity (ratio to wild type); higher = more cleavage; co-transcriptional

In order of rising self-cleavage:
1. U9G U20G  0
2. G11C C18G  0
3. G11A C19G  0.0231
4. G11A C32A  0.0231
5. G11C A42C  0.0346
6. G11A C14G  0.0346
7. G11C C22G  0.0386
8. G11C A78U  0.0437
9. G11C C49G  0.0504
10. G11A G35C  0.0536
11. G11C A43G  0.0536
12. G10U C75G  0.0563
13. G10U G74U  0.0594
14. G11A C19U  0.073
15. G11A G82C  0.0739
16. U9G C75G  0.0791
17. G10A U20G  0.0791
18. G11C C30A  0.0804
19. G11A A83G  0.0831
20. G10U G28C  0.0941
21. G10U G80U  0.0944
22. G10C U12C  0.0978
23. U9C G28A  0.101
24. G10C G28C  0.107
25. G10U G28U  0.109
26. U9G C36G  0.115
27. G10C C13U  0.119
28. G10U C13U  0.122
29. U9G C21A  0.123
30. G11C A83G  0.123
31. U9C G38A  0.123
32. G11C C15G  0.131
33. G10C G28U  0.148
34. G11A A45C  0.155
35. G11C C21U  0.156
36. G10U C30A  0.158
37. G11C A83C  0.158
38. G10A G73U  0.159
39. G10A C14G  0.166
40. G10U A45C  0.175
41. G10C G73U  0.177
42. G11A C44A  0.187
43. G10U U72C  0.193
44. U9G C75A  0.201
45. G11A A83U  0.203
46. G10A C14A  0.205
47. G10C C30U  0.208
48. G10A A43G  0.217
49. U9C G29A  0.222
50. G11A A45U  0.222
51. G10A G34C  0.227
52. G11C A78G  0.229
53. G11A U47A  0.249
54. G10C G39A  0.259
55. G11A G35A  0.272
56. G11A U65C  0.277
57. G11A U65G  0.305
58. G10C G25A  0.308
59. G11A C66A  0.308
60. G10U G40C  0.313
61. U9G C22A  0.314
62. U9G C32G  0.317
63. U9G C21U  0.332
64. G10A A43U  0.355
65. G11C C58G  0.369
66. G11C C86U  0.38
67. G10U C49G  0.391
68. G10C G73A  0.396
69. G11A A45G  0.403
70. U9G A43C  0.415
71. U9G U72C  0.415
72. G11A C66G  0.424
73. G11C A51U  0.426
74. G11A C66U  0.431
75. U9G G40C  0.437
76. U9G G81U  0.437
77. U9G C22U  0.44
78. G10C C49A  0.443
79. G11A G67C  0.456
80. U9G A43G  0.475
81. U9C U72C  0.485
82. U9C G38U  0.486
83. U9C C84G  0.489
84. G10C G17U  0.494
85. G11A G55A  0.499
86. G10C C64A  0.504
87. G10U C64A  0.513
88. G10C A70G  0.516
89. U9C G35C  0.519
90. G10U C84G  0.54
91. U9G G31U  0.554
92. G10U G68C  0.564
93. G10A G40U  0.566
94. G10C A83G  0.578
95. G10U G68A  0.584
96. G10A U27A  0.587
97. G10U U37C  0.587
98. G10U A70U  0.602
99. U9G A77U  0.604
100. G10U G59A  0.636
101. U9C C84A  0.65
102. U9G C30A  0.653
103. G10A C63U  0.655
104. G10A G50A  0.657
105. U9C G39U  0.665
106. G10U U65A  0.665
107. G10C A51C  0.665
108. U9G G31A  0.675
109. G10U A70C  0.678
110. G10A A56G  0.695
111. G10A A71U  0.712
112. U9G G52A  0.712
113. G10A G17A  0.724
114. G10U G68U  0.727
115. U9G C15G  0.739
116. U9G G82A  0.739
117. G10C G52A  0.746
118. G10U C64U  0.748
119. U9C C61G  0.755
120. G10C G40U  0.776
121. G10C G68U  0.778
122. G10A A56C  0.78
123. U9G U65G  0.782
124. G10C G39U  0.808
125. U9G G68A  0.831
126. U9G C41G  0.831
127. U9G C14A  0.831
128. U9G A70G  0.831
129. U9G C64A  0.831
130. G10A U65A  0.831
131. G10U G40U  0.842
132. G10A U47G  0.853
133. G10U C57U  0.855
134. U9G C64U  0.86
135. U9C U60A  0.862
136. U9C C62U  0.869
137. U9G U60G  0.875
138. U9C G50A  0.877
139. G10C C49U  0.89
140. G10C C64U  0.892
141. U9G A56G  0.895
142. G10A G40A  0.905
143. G10C C62A  0.919
144. U9G U12C  0.923
145. G10A C85U  0.946
146. U9G G52C  0.95
147. G10A U27G  0.98
148. G10C C62U  0.989
149. G10C C64G  0.997
150. U9G G68C  1.02
151. U9G C85A  1.02
152. G10C G52U  1.03
153. U9G G53A  1.03
154. U9G G59C  1.06
155. G10U A45G  1.07
156. U9G G67C  1.08
157. G10A C85A  1.09
158. U9G G53U  1.1
159. U9C U60C  1.11
160. U9C G67A  1.12
161. U9C C62A  1.14
162. U9G C62A  1.14
163. U9G U47A  1.16
164. U9C C57G  1.17
165. U9G G40A  1.29
166. U9G C61A  1.33
167. U9G C58A  1.42
